{
  "source": "patent US20250304916A1",
  "about": "“METHODS AND COMPOSITIONS FOR GENERATING VASCULAR LEPTOMENINGEAL CELLS” (Trailhead Biosystems Inc., priority 2024, published 2025)",
  "test_system": "MBP expression",
  "assay": "HD-DoE 8-factor model (stage 4), optimized for maximum expression of MBP",
  "format": "cell-based, human",
  "settings": "model optimized for MBP at 274; FIG. 6",
  "data": [
    {"molecule": "NT-3: neurotrophin-3, a Trk C pathway agonist (protein, UniProt P20783 139-257, looked up) Neurotrophin-3: YAEHKSHRGEYSVCDSESLWVTDKSSAIDIRGHQVTVLGEIKTGNSPVKQYFYETRCKEARPVKNGCRGIDDKHWNSQCKTSQTYVRALTSENNKLVGWRWIRIDTSCVCALSRKIGRT", "values": [
      {"measurement": "factor contribution, positive impact on MBP expression", "result": 12.1}
    ]}
  ]
}
